Columns and labels:
[1] = system: acetic acid writhing in ICR mice; test: Acetic acid writhing test in ICR mice; type: in vivo, mouse; conditions: for Writhing incubation period: 0.6% acetic acid i.p.; for Writhing incubation period / Frequency of writhing: n=13; for Frequency of writhing: within 15 minutes
Method: • Animals: male ICR mice; • Drugs and reagents: aspirin, physiological saline, glacial acetic acid, protein BD-11.
Experiment grouping: • Model group; • Aspirin 300 mg/kg group; • Protein BD-11, 50 mg/kg group, 200 mg/kg group.
One day after the experimental animals adapt to the environment, Aspirin 300 mg/kg, protein BD-11 50 mg/kg, 200 mg/kg were given orally one hour in advance, and the administration volume was 10 ml/kg; Then, 0.6% acetic acid solution was injected intraperitoneally, and the incubation period (seconds) and frequency of writhing in the animal was observed within 15 minutes.
Calculate the mean and standard error of the data in each group. Compared with the model group by TTEST, P<0.05 was considered as statistically different.
One hour after oral administration of aspirin 300 mg/kg and different doses of protein BD-11 (50 mg/kg, 200 mg/kg), 0.6% acetic acid solution was intraperitoneally injected to observe the writhing incubation period and frequency of ICR mice.
0.6% acetic acid solution was injected into the abdominal cavity of mice, which caused deep and large area and long-term painful stimulation, causing the mice to writhe (the abdomen was contracted into an “S” shape, the trunk and hind legs were stretched, the buttocks were raised and creeping). The incubation time to start writhing and times of writhing in mice were used as the pain response indexs to determine whether the test sample had analgesic effect. […] Compared with the model group, P<0.05, which is statistically significant.

[2] = system: yeast-induced fever model in SD rats; test: Yeast-induced fever model in SD rats; type: in vivo, rat; conditions: for Body temperature 2 hours after modeling: 2 h after 20% yeast s.c.; for Body temperature 2 hours after modeling / Body temperature 4 hours after modeling / Body temperature 6 hours after modeling / Body temperature 8 hours after modeling: n=8; for Body temperature 4 hours after modeling: 4 h after 20% yeast s.c.; for Body temperature 6 hours after modeling: 6 h after 20% yeast s.c.; for Body temperature 8 hours after modeling: 8 h after 20% yeast s.c.
Method: • Animals: 230-260 grams of male SD rats;; • Drugs: yeast (OXOID LP0021), aspirin (SIGMA A2093), protein BD-11; • Instruments: electronic balance (SARTORIUS BP121S type), electronic clinical thermometer (CITIZEN CT-513W type).
Experiment grouping: • Normal control group; • Model group: yeast fever model; • Positive control group: Aspirin 300 mg/kg group; • Protein BD-11, 10 mg/kg group, 50 mg/kg group.
Preparation of experimental animals: After the experimental animals adapt to the experimental environment (temperature 22° C.±2° C., relative humidity 50%±2%) for 1 day. Pre-adaptation to measure rectal temperature at 8:00 and 15:00, rats were fasted and water was taken freely 12 h before experiment, and let the animal to empty its feces before measuring the rectal temperature. Apply petroleum jelly to the electronic thermometer probe before each temperature measurement. Insert the rat rectum 2 cm (can be marked at 2 cm to ensure that the depth of each insertion is consistent), and record the body temperature after the reading is stable.
Subcutaneous injection of dry yeast to replicate rat fever model: The body temperature of the rats was measured before modeling. Qualified rats with a body temperature of 36.2-37.3° C. were selected and randomly divided into groups with 8 rats in each group. After oral administration of aspirin and different doses of protein BD-11, 20% yeast suspension (10 ml/kg) was injected subcutaneously immediately, and the normal control group was injected intraperitoneally with an equal volume of normal saline. The body temperatures of the rats were monitored after 2 hours for a total of 8 hours.
According to the body temperature measured at each time point on the day of the experiment, calculate the mean, standard deviation and standard error of the body temperature of each group of rats. The data of each group was compared with TTEST, and P<0.05 was considered as a significant difference.
Immediately after oral administration of aspirin (300 mg/kg), protein BD-11 (10 mg/kg, 50 mg/kg), subcutaneous injection of 20% yeast was performed to establish a model. The animal body temperature was monitored at 2 hours, 4 hours, 6 hours, and 8 hours after modeling.

[3] = system: ammonia water induced cough in ICR mice; test: Antitussive test, cough induced by ammonia water in mice; type: in vivo, mouse; conditions: for Incubation period (cough): 10% ammonia water 10 s; for Incubation period (cough) / Number of coughs: X±SEM, n=9; for Number of coughs: within 2 minutes
Method: • Animals: male ICR mice; • Drugs and reagents: dextromethorphan hydrobromide, ammonia water, 0.2% CMC-Na, protein BD-11; • Apparatus: Compressed nebulizer (403T type), balance (XS105DU type).
Experiment grouping: • Solvent control group; • Dextromethorphan 15 mg/kg group; • Protein BD-11, 20 mg/kg group, 50 mg/kg group.
Dextromethorphan and different doses of protein BD-11 (administration volume 10 ml/kg) were given orally in groups, and the solvent control group was given the same volume of distilled water. One hour later, mice were put into a sealed box and atomized 10% ammonia water for 10 seconds, and then observed and recorded the incubation period of cough in mice and the number of coughs in 2 minutes.
Record the time point of oral administration, the time point of atomization experiment, the incubation period of mice cough and the number of coughs within 2 minutes, respectively. The incubation period of cough refers to the number of seconds from the start of the atomization of ammonia to the occurrence of cough. The performance of coughing in mice is based on contraction of their abdominal muscles (breast contraction) and opening their mouths at the same time. Calculate the mean and standard error of each group of data, and use TTEST to compare the model group with other groups, and P<0.05 is considered as a significant difference.
Give dextromethorphan (15 mg/kg) and different doses of protein BD-11 (20 mg/kg, 50 mg/kg) in advance, One hour later, the mice were put into a sealed box and atomized 10% ammonia water for 10 seconds, and then the mice were observed and recorded the incubation period of coughing and the number of coughs within 2 minutes.

[4] = BD-11 50 mg/kg dose group, P<0.05

B1: BD-11: recombinant keratin, amino acid sequence SEQ ID NO:1, expressed in E. coli, band around 59 kD; Example 4 batch tested (protein, listed as Bos taurus)
chain: MSRQSTITFQTSSRRGFSTASATTPATSRSRFSSASVTHSPAGSGGLGRISGFGSRSLYNLGGTKRVSISGCGSNFRSGFGGRASSGFGVSGGFGYGGGIGGGHGGCGFSVCPPGGIQEVTVNQSLLTPLNLQIDPNIQRVRKEEREQIKTLNNKFASFIDKVRFLEQQNKVLETKWSLLQEQGTRTVRQSLEPFFEAYITDLRRQLDSITTERGRLDAELRTMQDVVEDFKVRYEDEINKRTAAENEFVALKKDVDAAYLNKVDLEAKANSLTDEINFLQMLFEAELCQMQTRVSDTSVVLSMDNNRSLDLDSIIAEVKAQYEEIANRSRAEAESWYQTKYEELQVTAGQHGDDLRNTKQEISETNRMIQRLRAEIDNVKKQCASLQTAIADAEQRGELALKDARAKLVDLEEALQKSKQDMARLLREYQELMNIKLALDVEIATYRKLLEGEECRLSGEGVSPVNISVVTSTVSSGYGGGSSIGSGSLGLSGGSGCSFMTSGGHSLGGSSFSNSSSRGLGGSGSSFKFVSTTSSSRKSYKH
Writhing incubation period ([1]; BD-11 50 mg/kg oral): 163.8 ± 8.2 s | Frequency of writhing ([1]; BD-11 50 mg/kg oral): 35.0 ± 2.5 times | Effect on number of writhing in mice ([1]; BD-11 200 mg/kg dose group, P<0.05 vs model group): significantly reduce the number of writhing | Writhing incubation period ([1]; BD-11 200 mg/kg oral): 299.9 ± 65.2 s | Frequency of writhing ([1]; BD-11 200 mg/kg oral): 23.3 ± 3.1 times | Effect on number of writhing times in mice (summary) ([1]; dose not given): significantly reduce the number of writhing times | Effect on increase in body temperature (summary) ([2]; 2, 4, 6 and 8 hours after modeling, dose not given): significantly inhibit the increase in body temperature | Effect on the increase in body temperature of model rats ([2]; BD-11 10 mg/kg dose group, most time points P<0.05 vs model group): strong effect | Body temperature 2 hours after modeling ([2]; BD-11 10 mg/kg oral): 36.7±0.1 °C | Body temperature 4 hours after modeling ([2]; BD-11 10 mg/kg oral): 37.0±0.1 °C | Body temperature 6 hours after modeling ([2]; BD-11 10 mg/kg oral): 37.4±0.1 °C | Body temperature 8 hours after modeling ([2]; BD-11 10 mg/kg oral): 37.3 ±0.1 °C | Body temperature 2 hours after modeling ([2]; BD-11 50 mg/kg oral): 36.9 ± 0.2 °C | Body temperature 4 hours after modeling ([2]; BD-11 50 mg/kg oral): 37.4 ± 0.1 °C | Body temperature 6 hours after modeling ([2]; BD-11 50 mg/kg oral): 37.5 ± 0.1 °C | Body temperature 8 hours after modeling ([2]; BD-11 50 mg/kg oral): 37.4 ±0.1 °C | Effect on the increase in body temperature of model rats ([2]; different doses of BD-11 (10, 50 mg/kg oral), after modeling): can inhibit the increase in body temperature of model rats to varying degrees | Incubation period (cough) ([3]; BD-11 20 mg/kg oral): 30.0 ± 3.2 s | Number of coughs ([3]; BD-11 20 mg/kg oral): 61.8±4.7 | Cough incubation period vs solvent control group [3, 4]: significant improvement | Number of coughs vs solvent control group [3, 4]: significant improvement effect | Incubation period (cough) ([3]; BD-11 50 mg/kg oral): 35.8 ± 2.0 s | Number of coughs ([3]; BD-11 50 mg/kg oral): 50.0±4.6 | Effect on cough incubation period (summary) ([3]; dose not given): prolong the incubation period | Effect on number of coughs (summary) ([3]; dose not given): significantly reduce the number of coughs

Reference: patent US20230183305A1, “KERATIN BD-11, PREPARATION METHOD THEREFOR AND PHARMACEUTICAL COMPOSITION AND USE THEREOF” (INSTITUTE OF MATERIA MEDICA, CHINESE ACADEMY OF MEDICAL …, priority 2019, published 2023)
